B1: IRBP-MT (SEQ ID NO:179) (peptide)
peptide: IVYQVPTIG
notes: Homologue of IRBP-60-68 with several residues replaced; synthetic
B2: IRBP-VV-2 (SEQ ID NO:180) (peptide)
peptide: IVISVPTIG
notes: as for B1
B3: IRBP-SN (SEQ ID NO:181) (peptide)
peptide: IVTRVPVIG
notes: as for B1
B4: IRBP-AT (SEQ ID NO:182) (peptide)
peptide: IVVRNPTAG
notes: as for B1
B5: IRBP-OS (SEQ ID NO:183) (peptide)
peptide: TVAKTPTIG
notes: as for B1
B6: IRBP-CM (SEQ ID NO:184) (peptide)
peptide: LVVSPPRIG
notes: as for B1
B7: IRBP-VV-1 (SEQ ID NO:185) (peptide)
peptide: IVSMVPKIG
notes: as for B1
B8: IRBP-CP (SEQ ID NO:186) (peptide)
peptide: KVIRVPRIG
notes: as for B1
B9: IRBP-ZE (SEQ ID NO:187) (peptide)
peptide: IVIRTPIIT
notes: as for B1
B10: IRBP-LU (SEQ ID NO:188) (peptide)
peptide: VVTSVPHIT
notes: as for B1
B11: IRBP-1-68 polypeptide (SEQ ID NO:1) (peptide)
chain: SRCQGKSSWPQLVGSTGAAAKAVIERENPRVRAVIIKVGSGATKDFRCDRVRVWVTERGIVARPPTIG

The binders below were run against T1, insulin receptor on human lymphocyte cells (IM-9) (human, UniProt P06213 28-1382) (assay: whole cell receptor binding assay on IM-9 cells with 125I-insulin; EC50 of promoting 125I-insulin binding).
T1 construct: whole, on cells; Endogenous receptor of IM-9 cells; also called IR; insulin receptors

Binder | EC50 [nM]
VIIKVGSGATKDFRCDRVR (synthetic) [IRBP-34-52 (SEQ ID NO:4)] | > 25
DFRCDRVRVWVTERGIVARPPTIG (synthetic) [IRBP-45-68 (SEQ ID NO:5)] | > 25
RVRVWVTERGIVARPPTIG [IRBP-50-68 (SEQ ID NO:6)] | 0.73
IVARPPTIG (synthetic) [IRBP-60-68 (SEQ ID NO:7)] | 0.77
SRCQGKSSWPGLVGSTGAA (synthetic) [IRBP-1-19 (SEQ ID NO:2)] | 15.3

Biological target: T1, insulin receptor on human lymphocyte …
Assay: as above
Remark: another data set of the same source
Procedure: (§1) After incubation, the cells were chilled, centrifuged at 2000 rpm for 10 min at 4° C., and the pellets were washed twice with an ice-cold wash buffer (10 mmol/L Tris and 150 mmol/L NaCl, pH 7.6). The pellet was counted by a gamma counter. The assays were performed at least three times for each polypeptide. […] The lower value of EC₅₀ represents a stronger effect on promoting the binding.

Binder | EC50 [nM]
IVARPPAIG [IRBP-MC (SEQ ID NO:21)] | 0.86
B1 | 0.77
B2 | 4.98
B3 | 9.79
B4 | 9.98
B5 | 9.93
B6 | 0.92
B7 | 0.96
B8 | 0.84
B9 | 4.94
B10 | 9.7

What follows are binders tested against T1, insulin receptor on human lymphocyte … (assay: whole cell receptor binding assay on IM-9 cells with 125I-insulin; EC50 defined as the concentration promoting 50% of the 125I-insulin to bind).
Procedure: as §1

Binder | EC50 [nM]
B11 | 4.15

Source: US20130310313A1 (CHINA MEDICAL UNIVERSITY, published 2013)
